Assay: soluble on expression in E. coli; label from the status in PepcDB or PDB records

Row | Sequence | soluble on expression in E. coli
1 | MSLLLSATTSIHDLVTSHPYLIEVLADYAPAFAKLRNPLLRNTLGRVATLQQAADLAGLELTGLMAHLARAIMEHTKEAVTLVPRGAETPAHAVADGDSGCGGCTPRPAEGNTADRATRLATLRALLERLHQGTPLADLKEAFASAVGGISAAEVASLEKELVAGGVAETEIKRLCSLHVDIFREALAPQHVPDMPPGHPVHTYRAENAEATRIADEIISQIDRMRSVPGDTESPLDELAWSFSRRHVADLLADLAHVERHYTRKEMQLFPMLEENGIEAPPKVMWEVHDDIRSLLRKARETVEGPSPVAAATVARDAALAVKDMVDKEETVLFPMALESLTEAQWGRVRHGEDEIGYAWVTPEGEWTPQAADTPESLTMEGAATGTPDRVTLGTGTLTVETLDRMLRTLPLDLSLVDAEDRVAYYTDSTHRIFPRSAGVIGRNVRNCHPPKSVHMVEEILARFKTGERDEAAFWIELGGRFLHIRYFAVRSDEGRYLGCLEVAQDVTDIRALSGQRRLLDWNEGHHHHHH | not soluble
2 | MSIQLNGINCFYGAHQALFDITLDCPEGETLVLLGPSGAGKSSLLRVLNLLEMPRSGTLTIAGNHFDFTKTPSDKAIRELRQNVGMVFQQYNLWPHLTVVQNLIEAPCRVLGLTKDQALARAEKLLERLRLKPYSDRYPLHLSGGQQQRVAIARALMMEPQVLLFDEPTAALDPEITAQIVSIIHELAETNITQVIVTHEVEVARKTASRVIYMENGHIVEHGDAGCFAHPQTEAFKNYLSH | not soluble
3 | MAHSAAAVPLGALEQGCPIRVEHDRRRRQFTVRLNGCHDRAVLLYEYVGKRIVDLQHTEVPDAYSGRGIAKHLAKAALDFVVEEDLKAHLTCWYIQKYVKENPLPQYLERLQP | not soluble
4 | MGSDKIHHHHHHMMQSAAINRRSFVKAAGLGFLATLTPRSLMALERADAVYASGIRAADGSFAIATVTERGEIVDQVALPARAHGIAFSASTGKTVAFARRPGTYAMIFDPWNKSEPIVISSREDRHFYGHGAFSPDGRLLYASENDFDGNRGMIGLYDATDRFTRIGEFETYGIGPHDMTVSDDGRLLIVANGGIETHPDFGRTKLNLGEMQPSLALIDAATGALVEKHVLPAEWAELSTRHVDLDGAGRIWFACQYEGHRKDLPPLVGHFAKGEDLSFIDLPEETTRRLANYVGAIAVNRSEGLVGITSPKGGASVTIDARTGKMLAETSVPDAAGIAPARNGFAVSSYDGDFLSTRSDVAWDQHIVRI | not soluble
5 | MPRHFHVALLILVLCGAERARGALRVQLQDYDKNSWRSVLRRVAPEWVLEEFADVKVLSAAENGFQLPKSGLAQIEINKSGRKTVTANTPTDALNAINTYLRTECLSQVSWSNSSFSSGCRKRTSDFINFESKQIRYFGNMCTFSYSFAWWEWPQWERFIDWIALNGFNTVLMPLGQEIIWRDIFMGLGVQRDELDSYFTSQAYLAWHRMGNLKAYGGGLSDAQMLNDHNLAKRIIDRLLELGITPILPTFAGFVPDHLETLFPASKFNRLPRWNNFTSETSCMLSVSPFDPLFQKIGSTFLRHQKKMFGGDVTNMYSADPFNEILPSESAKFDAKFVKQTAQAIMNSCKKVDKNCVWVLQSWSFTYDQWPAWAIKSFLSAIPVGNLLILDLYAEVVPAWQMTSSFQGHHFVWCLLHNFGGSRELRGNLQKIDKGYQLALMKAGSNLVGAGLSMEAIDQNYVVYQFMIDRMWSPEPLPLNNWLKAYSESRYSADFKVAQKFWTLLAGTFYNQPEKWGTPRFSVFLYHRPGFGRKIEYWFPVEETFSRFRELLPALVHVLGEHPLFREDLNDVMREMTQFEMGNEAALSMSEAFLMEDKQQVGASCEMLMEMFQKLESYSNRDVRQWIENAKSIAPTSEERQVFPVTAGDILTVWGPTGQNLDYAHREWAGLMSGYYGRRWQYFCDWILEHDDFNHTEFSISVFRDVERPFSISNI | not soluble
6 | RFNLFNYREATLIADYGHNPDAMEALVCAIDHIPAKKRTVVISAAGDRRNEDIRLQTRILGDVFDEVVLFQDKCQRGRADGEVLGLLREGLENAKRVRKVSEIRGEFKAIDTALTNLEAGELCLILIDQ | not soluble
7 | MSLSKRNKPQESKEFGFQALKINGTYVSTDIMKEERNKFFEKYKRNADVLRMNDHERNDMLLDQVIERLLLEDYVNNKSGVTATDSEVEDYINRFIKPRYGDSLGTFMSSQGYTNEEEMKAGIKEYILKHKALYKAAKEKNVTLTEQELDEGYEKHKIQNKKVDIRHIFISSQERGKEEAKKLADEIYNRLKNNEDFETLAKQYSDDEKTKESGGVITELRAGFNEAVFDNAVFTAEAGQLLEPIEVARGYEIVYVDKVTEGHHHHHH | soluble
8 | MLPSWKAFKAHNILRILTRFQSTKIPDAVIGIDLGTTNSAVAIMEGKVPRIIENAEGSRTTPSVVAFTKDGERLVGEPAKRQSVINSENTLFATKRLIGRRFEDAEVQRDINQVPFKIVKHSNGDAWVEARNRTYSPAQIGGFILNKMKETAEAYLAKSVKNAVVTVPAYFNDAQRQATKDAGQIIGLNVLRVVNEPTAAALAYGLDKSEPKVIAVFDLGGGTFDISILDIDNGIFEVKSTNGDTHLGGEDFDIYLLQEIISHFKKETGIDLSNDRMAVQRIREAAEKAKIELSSTLSTEINLPFITADAAGPKHIRMPFSRVQLENITAPLIDRTVDPVKKALKDARITASDISDVLLVGGMSRMPKVADTVKKLFGKDASKAVNPDEAVALGAAIQAAVLSGEVTDVLLLDVTPLSLGIETLGGVFTKLIPRNSTIPNKKSQIFSTAASGQTSVEVKVFQGERELVKDNKLIGNFTLAGIPPAPKGTPQIEVTFDIDANGIINVSAKDLASHKDSSITVAGASGLSDTEIDRMVNEAERYKNQDRARRNAIETANKADQLANDTENSIKEFEGKLDKTDSQRLKDQISSLRELVSRSQAGDEVNDDDVGTKIDNLRTSSMKLFEQLYKNSDNPETKNGRENK | not soluble
9 | MSLTNHHPSSTGPQHPYRAGWIHFTNVAPILDSLELPPGVTAITGVPTQMNAALLSGEVDIANVSAVEFIRHADTLAALPDFSVAVLGPVYSVNLFHTCPLPELRRVALTSQSAMSVALLEVLLRQKGLSPVLERAEGTAESLLAAGYDGVLRIGDDALREWYGVVGPLTPERTMTSLPHTGRGITVTDLAQEWFDLTGHPFTFAVWAYRKDNPPPAALLQAMREARRRGIGHLAEVSQRHAEKLGLPERVVQHYLWNFRYHLEAPDRLGLREFADLAVPGHAELTFGAREEAEGHHHHHH | soluble
10 | MSNIVYLTVTGEQQGSISAGCGTSESTGNRWQSGHEDEIFTFSLLNNINNTGLGSQFHGITFCKLIDKSTPLFINSINNNEQLFMGFDFYRINRFGRLEKYYYIQLRGAFLSAIHHQIIENQLDTETITISYEFILCQHLIANTEFSYLALPENYNRLFLPNSKNQTNNRFKTLNSKAIGRLLAAGGVYNGNIEGFRDTAEKLGGDAIKGYDQILNEKTAGIAIATASILLTKRSNVDTYTEINSYLGKLRGQQKLLDGIDIIEIIYIKRPSKDLANLRKEFNKTVRKNFLIKLAKTSEASGRFNAEDLLRMRKGNVPLNYNVHHKLSLDDGGTNDFENLVLIENEPYHKVFTNMQSRIAKGILVGESKITPWAIPSGSIYPPMKNIMDHTK | not soluble
11 | MKLNDPLVESFEFRGEIYPIDLSFNKVLDVFDVIDDDFLNEAEKCFLCLDILLDRTDLPFTYAVDLWVYIKTNFIDAERPEKPQLDIKGNPMPVVKEKEDNKKVIDLSLDAEFIYASFRQAYQINLLKEQNRLSWIEFKALLNALPDDTVMQRIIAIRQWEDDGEGSKKYRDNMRKLKAKYSLDEREEEDDGS | not soluble
12 | MTNSNNRQSEYPVDPLFLDRWSPRAFDGSPMPKEHLLTILDAAHWAPSASNHQPWRFVYAHKDSEDWPLFVELLMEGNQKWAKNASVLLFVISRDHTISHEGEKKPSATHSFDAGAAWFSLAMQAHLLGYHAHGMGGIFKDRIVEKLDIPDGFKVEAGVAIGTLTDKSILPDDLAEREVPSKRVPLADVAFEGRFTGKAD | soluble
13 | MGSDKIHHHHHHMLSNLWKRQAPQMVGIDIGSHEIKAILLSKTADGYKILSHAAVPVKKGAVNDHEIRDSDAVLESLRLIKRSLPKSVKYAAAAVSGSAVMTKVIYMDASLSEEEMETQIEIEADNLIPYSLDEVSIDFETLSVNSADPSKVDVLLSACRTENIDARVDSLDDINLEAKVIDVEGYALGRSFELVAAQLPDGAEDKVVALVDIGANMTTFAVVEKGETTFIREQAFGGEQFTQSILSFYGMSHEQAEKAKLEGDLPRNYMFEVLSPFQTQLLQQIKRTLQIYCTSSGKDKVDHIVLCGGTSKLEGMANLLTNELGVHTIIADPFLGCLHADEQVKTQLQPTINKYMVACGLALRSYSQWRT | not soluble
14 | MGSDKIHHHHHHMTFLRALLGATGQTLRAALAGLTVKPHSGHPVFPVTWVTPHIAAGPAPVSAAHLEALREQGIVAILNVCEELCTLADTEEAAGFEVRFLPIEDEGAPEPDALEEVLDWLDESVWRGRKVYVHCRWGVGRTGTVLHAYLLRRGLSPRRAEHFLSRLRSRPTSYTQWRSLRRFARRNPALTVREAAVEPGVADAMTPVLRDLARLVQEVERHVEAATPGISPEAFADAPRCGRDHVRCCATPPTLTLAEAAALTAAMDALLSSTQRDELRQKTSRGSGVPCPLLHDQRCLLYEARPLRCRTADMDETARLRLLEEVVADTLDDLDRRVFGLLAGCTPATSPPCFPIVEVLSGRYVATTFRHVACGLNTGKP | not soluble
15 | MSAASTTSTPAAAAVAPQQPESLYRVVQTLGEGAFGEVLLIVNTKNPEVAAAMKKINIANKSKDFIDNIRKEYLLQKRVSAVGHDNVIRMIGMRNDPQFYYLFLEYADGGELFDKIEPDCGMSPVFAQFYFKQLICGLKFIHDNDVVHRDIKPENLLLTGTHVLKISDFGMATLYRNKGEERLLDLSCGTIPYAAPELCAGKKYRGPPVDVWSSGIVLIAMLTGELPWDRASDASQSYMGWISNTSLDERPWKKIDVRALCMLRKIVTDKTDKRATIEQIQADPWYQHNFGQVETPNGRPLKRARNNDENITCTQQAECSAKRRHLETPNEKSTLAERQNASFSQPTKTEDLLLTQHIDMSQTNSVRKKPSEIGGFLAKISNFSVNLLQRMVCRMTRFCVVTDIRSTYQKVARASEHAGFGVRETDDYRLLVTWREVSMMVSLYTMGDIPDKPRVMVDFRRSRGDGIQFKKMFMDVRNRMHEWICTDGNNWLANLGYVPRNPQIVNGGGVNVEHSASSINVDV | not soluble
16 | SRSFRPLYRLIGWIDRFRVNEPVQELVMAKTDVTEFRKLSEAMLRTAHHNVEVFEQQKEFISHASHELQTPLAISRNKLEMLLQDPSLNEQQLEQIYKAIQSINHIVQLNKTLLLYSKIENHQFPEEESIDVNELLHNLAEEYEAIFANRRIRIVWSRSEPMVLSMNPTLAKVLLSNLLKNAYLHNLERDGEIHIDLTSMHCSIANTGVKNALDETLIFERFYHDMKQAHSSGLGLPIARSICQLYGLRLTYRFENGKHTFSIGKEA | not soluble
17 | GPGSMTTGQQQSIEGLRNELQQLEDSLMVREEALQRKRQQSERLNNELVDAYLSTTSQEESRASANEAYRTASRAKQVLENSETQSNESMWSNRDDYVSQLMAADEERKGVEADIGEVSSRIKELREDKVDAQKRLTVARLMSMLDDLQSLLKKKVYGPSGSEETRAQELLKTVQELSRERERTIHLLSKKEREMASLIDLKQRRIEELRKEFTRNVSMYADSNKRELLNVAQRIQGERHQLLEEMERLEEANRKITDVLMDTKYTTESAIKDRDTALSAVETMGVSTNPERECLQLRERIQKANAERRMYVLKMEEVQSSIDEDTVMYNTRMSKLRKEILFYQDETVRFEKENKDLKHLCDTLAGSLDGSH | not soluble
18 | MSLSFDVVFVGHRRGEVRSDNAMLGLLCDAAFDELTRPDVVIFPGGIGTRTLIHDQTVLDWVREAHRHTLLTTSVCTGGLVLAAAGLLNGLTATTHWRVQDLFNSLGARYVPQRVVEHLPERVITAAGVSSGIDMGLRLVELLVSREAAEASQLMIEYDPQPPVDAGSLAKASPATHRLALEFYQHREGHHHHHH | not soluble
